Among the data in PMC4944982 are EC50 of activation of a serum response element (SRE)-controlled NanoLuc reporter in HEK293T cells, IC50 and Kd values, retold here.

The target in assay [1] is endogenous FGF receptor of untransfected HEK293T cells (human (endogenous in HEK293T)) (UniProt P11362).
Assay [2] has the same target. The experiment in a line: bioluminescent (NanoLuc) competition binding on living cells; untransfected HEK293T cells in suspension in a 96-well filtration plate; constant FGF2-Luc as tracer and various concentrations of wild-type or mutant FGF2 in serum-free DMEM plus 1% BSA and 5 μg/ml heparin, 20°C, 2–3 h.
Assay [3] has as its target human FGFR1 (transcript variant 2), overexpressed on HEK293T cells (human) (UniProt P11362). The experiment in a line: bioluminescent (NanoLuc) competition binding on living cells; adherent HEK293T cells transiently overexpressing human FGFR1; constant FGF2-Luc as tracer and various concentrations of wild-type or mutant FGF2 in serum-free DMEM plus 1% BSA and 5 μg/ml heparin, 20°C, 2–3 h.

Assay [4] shares this target. The assay is described as follows: bioluminescent (NanoLuc) saturation binding on living cells; adherent HEK293T cells transiently overexpressing human FGFR1 in 96-well plates; various concentrations of FGF2-Luc in serum-free DMEM plus 1% BSA and 5 μg/ml heparin, 20°C, 2–3 h; nonspecific binding with 250 nM 6×His-FGF2; one-site model.
The target of assay [5] is endogenous FGF receptor of untransfected HEK293T cells (human (endogenous in HEK293T)) (UniProt P11362). The experiment in a line: bioluminescent (NanoLuc) saturation binding on living cells; untransfected HEK293T cells in suspension in a 96-well filtration plate; various concentrations of FGF2-Luc in serum-free DMEM plus 1% BSA and 5 μg/ml heparin, 20°C, 2–3 h; nonspecific binding with 250 nM 6×His-FGF2; one-site model.

In assay [1], 6×His-FGF2 (ligand) displayed an EC50 of activation of a serum response element (SRE)-controlled NanoLuc reporter in HEK293T cells of 0.058 nM. The half-maximal inhibitory concentration (IC50) – broadly, the concentration needed to halve the response being measured – in assay [2] amounted to 0.081 nM; in assay [3], 0.65 nM.

The substance 6×His-[C95S]FGF2 (ligand) registered an EC50 of activation of a serum response element (SRE)-controlled NanoLuc reporter in HEK293T cells in assay [1] of 0.1 nM.

In assay [1], 6×His-[Y32A]FGF2 (ligand) registered an EC50 of activation of a serum response element (SRE)-controlled NanoLuc reporter in HEK293T cells of 0.309 nM. Further, the IC50 worked out at 5.4 nM in assay [2] and 3.45 nM in assay [3].

For the substance 6×His-[Y111A]FGF2 (ligand), the EC50 of activation of a serum response element (SRE)-controlled NanoLuc reporter in HEK293T cells in assay [1] is 0.794 nM. Also, the IC50 in assay [2] is 10 nM; in assay [3], 5.88 nM.

“NanoLuc-conjugated FGF2 (FGF2-Luc) (ligand)”: the values for the Kd in assay [4] and in assay [5] were 0.161 nM and 0.025 nM, respectively.
